Data: US20220204580A1 (AstraZeneca / MedImmune, published 2022)
Numbered stars: 1 amine (or outer) side, 2 acyl side, 3 side chain; on linkers, the order of the positions; unused ones are H or OH. Bridge positions count the residues as written; N and C are the ends. Square brackets hold non-standard residues; d marks the D form. Side chains are listed from the residue outwards. Ends that are not written are not given here. * marks the point of attachment. C18 diacid = O=C(O)CCCCCCCCCCCCCCCCC(=O)*; γGlu = O=C(O)[C@H](CCC(=O)[*:2])N[*:1]; Aib = CC(C)(N)C(=O)O

T1: human amylin receptor (calcitonin receptor co-expressed with receptor activity modifying protein, RAMP3) (human, UniProt P30988 25-474; O60896 24-148)
T1 sequence (looked up) 1: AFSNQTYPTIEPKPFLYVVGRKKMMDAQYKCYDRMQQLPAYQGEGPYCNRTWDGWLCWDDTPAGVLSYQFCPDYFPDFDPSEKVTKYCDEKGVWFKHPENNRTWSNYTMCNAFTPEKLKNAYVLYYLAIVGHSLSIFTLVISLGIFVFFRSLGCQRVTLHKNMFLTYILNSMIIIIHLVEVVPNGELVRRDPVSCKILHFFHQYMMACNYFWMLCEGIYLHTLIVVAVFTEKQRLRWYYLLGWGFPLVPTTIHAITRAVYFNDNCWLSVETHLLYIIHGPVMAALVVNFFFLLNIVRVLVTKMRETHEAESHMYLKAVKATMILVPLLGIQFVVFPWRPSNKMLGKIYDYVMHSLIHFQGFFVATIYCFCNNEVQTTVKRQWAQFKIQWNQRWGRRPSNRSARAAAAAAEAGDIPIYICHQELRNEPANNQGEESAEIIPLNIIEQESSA
T1 sequence (looked up) 2: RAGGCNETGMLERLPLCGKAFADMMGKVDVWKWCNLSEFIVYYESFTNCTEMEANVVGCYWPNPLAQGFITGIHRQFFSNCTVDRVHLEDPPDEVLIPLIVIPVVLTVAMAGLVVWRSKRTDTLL

T2: human calcitonin receptor (human, UniProt P30988 25-474)
T2 sequence (looked up): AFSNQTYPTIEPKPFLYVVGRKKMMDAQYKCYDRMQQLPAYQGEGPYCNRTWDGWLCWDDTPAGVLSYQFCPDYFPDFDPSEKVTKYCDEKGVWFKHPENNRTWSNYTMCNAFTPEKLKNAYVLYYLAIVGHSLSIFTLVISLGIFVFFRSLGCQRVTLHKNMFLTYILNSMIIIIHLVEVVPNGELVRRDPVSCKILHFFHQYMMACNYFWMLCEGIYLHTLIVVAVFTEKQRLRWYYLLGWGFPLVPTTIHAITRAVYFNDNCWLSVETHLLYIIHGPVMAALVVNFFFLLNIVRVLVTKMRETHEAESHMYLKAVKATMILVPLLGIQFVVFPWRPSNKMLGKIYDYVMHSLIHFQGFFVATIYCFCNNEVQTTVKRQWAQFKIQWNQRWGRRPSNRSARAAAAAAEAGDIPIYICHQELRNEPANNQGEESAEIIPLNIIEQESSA


Legend:
[1] = target: T1, human amylin receptor (calcitonin …); assay: cell-based or functional assay
[2] = target: T2, human calcitonin receptor; assay: cell-based or functional assay

EC50 (cAMP production) [1] [nM] | Ratio (EC50 hCTR / EC50 hAMYR3) [1] | EC50 (cAMP production) [2] [nM] | Binder
0.556 | 2 | 0.859 | K([γGlu-C18 diacid])KCNTATCATQRLANFL[Aib]HSSNNFGPIL[Aib]PTNVGSNTY-NH2 (disulfide 3-8; N-terminus assumed; SMILES CC[C@H](C)[C@H](NC(=O)[C@@H]1CCCN1C(=O)CNC(=O)[C@H](Cc1ccccc1)NC(=O)[C@H](CC(N)=O)NC(=O)[C@H](CC(N)=O)NC(=O)[C@H](CO)NC(=O)[C@H](CO)NC(=O)[C@H](Cc1c[nH]cn1)NC(=O)C(C)(C)NC(=O)[C@H](CC(C)C)NC(=O)[C@H](Cc1ccccc1)NC(=O)[C@H](CC(N)=O)NC(=O)[C@H](C)NC(=O)[C@H](CC(C)C)NC(=O)[C@H](CCCNC(=N)N)NC(=O)[C@H](CCC(N)=O)NC(=O)[C@@H](NC(=O)[C@H](C)NC(=O)[C@@H]1CSSC[C@H](NC(=O)[C@H](CCCCN)NC(=O)[C@@H](N)CCCCNC(=O)CC[C@H](NC(=O)CCCCCCCCCCCCCCCCC(=O)O)C(=O)O)C(=O)N[C@@H](CC(N)=O)C(=O)N[C@@H]([C@@H](C)O)C(=O)N[C@@H](C)C(=O)N[C@@H]([C@@H](C)O)C(=O)N1)[C@@H](C)O)C(=O)N[C@@H](CC(C)C)C(=O)NC(C)(C)C(=O)N1CCC[C@H]1C(=O)N[C@H](C(=O)N[C@@H](CC(N)=O)C(=O)N[C@H](C(=O)NCC(=O)N[C@@H](CO)C(=O)N[C@@H](CC(N)=O)C(=O)N[C@H](C(=O)N[C@@H](Cc1ccc(O)cc1)C(N)=O)[C@@H](C)O)C(C)C)[C@@H](C)O) [Peptide 96 (SEQ ID NO: 96)]
0.691 | 2 | 1.17 | K([γGlu-C18 diacid])KCNTATCATQRLANFL[Aib]HSSNNFGPI[Aib]PPTNVGSNTY-NH2 (disulfide 3-8; N-terminus assumed; SMILES CC[C@H](C)[C@H](NC(=O)[C@@H]1CCCN1C(=O)CNC(=O)[C@H](Cc1ccccc1)NC(=O)[C@H](CC(N)=O)NC(=O)[C@H](CC(N)=O)NC(=O)[C@H](CO)NC(=O)[C@H](CO)NC(=O)[C@H](Cc1c[nH]cn1)NC(=O)C(C)(C)NC(=O)[C@H](CC(C)C)NC(=O)[C@H](Cc1ccccc1)NC(=O)[C@H](CC(N)=O)NC(=O)[C@H](C)NC(=O)[C@H](CC(C)C)NC(=O)[C@H](CCCNC(=N)N)NC(=O)[C@H](CCC(N)=O)NC(=O)[C@@H](NC(=O)[C@H](C)NC(=O)[C@@H]1CSSC[C@H](NC(=O)[C@H](CCCCN)NC(=O)[C@@H](N)CCCCNC(=O)CC[C@H](NC(=O)CCCCCCCCCCCCCCCCC(=O)O)C(=O)O)C(=O)N[C@@H](CC(N)=O)C(=O)N[C@@H]([C@@H](C)O)C(=O)N[C@@H](C)C(=O)N[C@@H]([C@@H](C)O)C(=O)N1)[C@@H](C)O)C(=O)NC(C)(C)C(=O)N1CCC[C@H]1C(=O)N1CCC[C@H]1C(=O)N[C@H](C(=O)N[C@@H](CC(N)=O)C(=O)N[C@H](C(=O)NCC(=O)N[C@@H](CO)C(=O)N[C@@H](CC(N)=O)C(=O)N[C@H](C(=O)N[C@@H](Cc1ccc(O)cc1)C(N)=O)[C@@H](C)O)C(C)C)[C@@H](C)O) [Peptide 95 (SEQ ID NO: 95)]
